From the DeepSol protein solubility set

Assay: soluble on expression in E. coli; label from the status in PepcDB or PDB records

Sequence	soluble on expression in E. coli
MGSDKIHHHHHHMNARVNLNGLGTLHPMTSTRIATGTSGLDTILRGGLPSNRLYLLEGQPGSGKTTLALQFLLEGAAKGESCLYITLSETLDELQEVAQSHGWSLDALHIFELASAEAFLGDGRQQSILHPWELELDGTVKLIQAEVDRVKPQRVVFDSLSELRLLAQDSLRYRRQVLALKQFFAPRNITVLLVDDLTGTSEGRDSHLHSLCHGVVSLERLTLDFGAARRRMQVQKLRGVDFIAGYHDLSILRGGLRIYPRLIASDHHVTFIGDAVSSGVQEVDDLLHGGPLRGTSTLLTGPAGSGKTNLALQYVAAACARGEHCCIFEFDERTGTLLARAESLGLDLRRHLESGLLELRQMDPAELSPGEFAWQVRASVEQRNCRLLVIDSLNGYLSSMPQEKQLMLQMHELLSYLNQSGVTTFLINPQHGLVGTMSTGNLNISYMADTVILFRFFEAQGRIRKALSVIKNRSGAHEDAIRELRIGNSGIRLSAPLNDFHGVLTGTPHFIGDEAPLLGNDLARR	not soluble
MGSDKIHHHHHHMLNFTVGPVMSSEEVRAIGAEQVPYFRTTEFSSTMLENEKFMLEYAKAPEGSKAVFMTCSSTGSMEAVVMNCFTKKDKVLVIDGGSFGHRFVQLCEIHEIPYVALKLEHGKKLTKEKLYEYDNQNFTGLLVNVDETSTAVLYDTMMIGEFCKKNNMFFVCDCVSAFLADPFNMNECGADVMITGSQKVLACPPGISVIVLAPRGVERVEKSKVRTMYFDLKDALKNQERGQTPFTPAVGILLQINERLKEIKKHGGADAEVARIASQAADFRAKIKDLPFELVSESPANGVTSVHPTTANAYDIFLKLKDEYGIWICPNGGEMKDTIFRVGHIGALTHEDNTTLVNAFKDLQKRNLL	not soluble
NGYEALIMTHSAVTDPPLMIRSADNSLIKADDKTLLTALEAEGIGSYSFILTGEGLVKTKYRQQAVSLMGVDDRYPRTVKIDSIVFAGTFATDTLSGATALNVGAAIATEMQLGAGFVEAVEVIVPRRIGLINPLVPAGAFKSLQGQVASVFASGLQPEDNSIILSIDSLRKLLDYSDHEAEAVAIQLRTGSDAEQIALRLKETLGDSYQVLDLAGQHPEITHLIAMEKWMS	not soluble
MSHSYSVPKKFPTTVVGSYPKIGPASEAIKKRRAGEISEEEFHRIARESIRMVVEDYIWAGVDIISDGEQTREDMVVYFAERLEGYREGDWVRVFDNVYFRKPIVAGRVRWVRPMIIEDWEYARSISAGRPVKFIITGPYTMLEWSFDLHYGDRRELIFDLARAIRREIDEALARGAEYIQVDEPALSTRPFKEEAELLKEALDIIFKGVGAKRIVHICYGELERILPYILDYPVDQFDLEMKNSNFRLLPYLKEYGYDKEIGYGVIDVHSFQVESVGEVKEAIDRLMKMDIVGPEKVYVDPDCGLKRLPRDVARAKLKNMVEAARLAREEWMAGDPLEHHHHHH	not soluble
MGSDKIHHHHHHMTQITPQPGIMDIALYQGGAAHVDGVSNVTKLSSNENPLGPSPAAVEAMAEAAATMHRYPSSDHATLRAAIAETHGLDAERIICGAGSDEIIAFLCQCYAGPGDEVLYTEHGFAMYRISALAAGATPVEVKERERVTDVDALLAGCTAQTKLVFIANPNNPTGTMISEAEVARLADGIPEDAILVLDGAYAEYVEGFDAGAQLIAARHNVVMTRTFSKIYGLGGARVGWAYGPQEIIDVLNRVRGPFNVSTTALAGAEAAVRDTDYVQRCRLENAKWRGWLADQLAELGVPSDTSCTNFILARFASQSEAESCDDFLKQRGLIVRRVAGYNLPTALRITIGDETACRAVAAAVKDFKAGAAE	not soluble
MSLNFTLHTLNGIKLWLVLLLLSGAINVCRADSPRQTINFNRGWKYCQGDFDHAARPGFDDSEWEKIGLPHSFSTPYFMSKDFYVGYGWYRKAFPVKKEILGKKSFLEFDGVFQEAEIFVNGHLAGTHKGGYTGFSIDISAYLKEGKNLVAVRVNNCWRPDLAPRAGEHVFSGGIYRNVRLVIKPPTYIDWYGTWITTPDLAENKGKSGSVHIRTDVCNASGKTDTYRLLTTVVDAQGKEVSSVSTSQVLPDNATYTFEQQTKEIQAPQLWHPNHPALYKVISSLYHGQELIDRYETAFGFRWFEWTADRGFFLNGEHLYFKGANVHQDHAGWGDAVTETGMRRDIRLVKEAGFDLIRGSHYPHSPAFSQACDEIGMLFWAENAFWGIGGHKGDGYWNASAYPVNESDRAEFENSVKAQLKELIRIHRNHPSIIVWSMSNEPFFTAPETINPMRKLLEETVKLSKQLDPTRPAAVGGAQRPLGEKRIDKLGDIAGYNGDGSYIPEFQQPGMPTVVSEYGSTTADRPGEYDPGWGDLAKNNAQNGFPWRSGQAIWCAFDHGSIAGSALGKMGIIDYFRIPKRAWYWYRNAYKGITEGHHHHHH	not soluble
STRDDDDDEDDEEEEDSGAWGRESYAFDGFHPTEEFGFSFSPRGGMRFHGNFGFDDLVRDFNSIFSEMGAWTLPSHSPELPGPESETPGVRLREGQTLRDSMLKYPDSHQPRIFEGVLESHAKPESSKPAPDWGSQGPFHRLDDTWPVSPHSRAREDKDLDSQVSQEGLGPLLQPQPKSYFKSISVTKITKPDGTVEEHRTVVDGEGRRETTVTHQEAHDSSRSDPDPPRSSALDDPFSILDLLLGRWFRSR	soluble
MGHHHHHHSHMTITSGSSLPDGCEGRGLSVHTDMASVTKAMAAPESGLEVRDRMWLKITIPNAFLGSDVVDWLYHHVEGFPERREARKYASGLLKAGLIRHTVNKITFSEQCYYVFGDLSGGC	soluble
MGSDKIHHHHHHMRLVNIAYVGEGEVLARPLVSPNGKVLLQAGVKLTRNYIDKLSRLGFDTMFIEDDTFQDVEIYSAVSIKTREAAYASLENLSKNLNEAQPHTVNLGEVKKAVQNIIADLLYSKDMLGNVMEIQGYDDYTFHHSVNTTIIALIMGISMGWHNGKLLELGMGVLMHDVGKIKIPSEILNKRGPLTPEEFAEIKKHAEYGFEILRKNHDINLLSAHIALQHQERWDGSGYPRGLKGNQIHEYGRLAAVADVYEALTSKRVYRNALQPYEAYEYVIANSDTLFEPKVVQNTFSKCITPYPTGTGVRLTNGLRGNVVKQNFTFPTRPYVRMTHEGEIRLIAPIDYNLAEHPSLMIVGIENK	not soluble
MGSDKIHHHHHHMIRLSNENTIFFMDKENVPIASCQSGDTVIFETKDCFSDQITNEEQALTSIDFNRVNPATGPLYVEGARRGDMLEIEILDIKVGKQGVMTAAPGLGALGESLNSPTTKLFPIEGDDVVYSTGLRLPLQPMIGVIGTAPPGEPINNGTPGPHGGNLDTKDIKPGTTVYLPVEVDGALLALGDLHAAMGDGEILICGVEIAGTVTLKVNVKKERMFPLPALKTDTHFMTIASAETLDAAAVQATKNMATFLANRTALSIEEAGMLLSGAGDLYVSQIVNPLKTARFSLALHYFEKLGVDLCN	not soluble
MPNYKLTYFNMRGRAEIIRYIFAYLDIQYEDHRIEQADWPEIKSTLPFGKIPILEVDGLTLHQSLAIARYLTKNTDLAGNTEMEQCHVDAIVDTLDDFMSCFPWAEKKQDVKEQMFNELLTYNAPHLMQDLDTYLGGREWLIGNSVTWADFYWEICSTTLLVFKPDLLDNHPRLVTLRKKVQAIPAVANWIKRRPQTKL	soluble
MGSDKIHHHHHHMLIYHYTTVDTFLKILDSKAIWASDLSKMNDPQEFTIGIELIKKFYQKKFPDLLHWFENDRFVGLDNEQLLLGCSFSENPDDLSQWRAYGDDGKGVVIGINRRILSASNTLTIPAFYKKDERTASFVHFHKVIYDKQEFENSVKELLDNIGDFINDTVESFKLSIGLSRLACSFKSDFYKTEQEIRAILEHSKRSDIYLDESLKKHKLFDVKFRLSQFGLVPYCKVNLSNADASSIQTVKLGPKCNISKKDLEFMLLATGNKDILVSTSAGQYR	not soluble
MGSDKIHHHHHHMKVVIISGGNSPSYTLIKKELRESEYLIAADSGANTLFKYDVFPDYIIGDLDSIKTVALNYYKNRKVSILQYPPEKDYTDTEIAVNKAIDLGATEIVLLGCTGSRIDHLFGNIGMLLKCLKLGVSCVIKDDNNTIFLTETSIKIRGSLGKTFSIIPYSEEISDLTIIGAKYPLNNYKMKIGSAIGISNVFEEEEVKVQFNSGKILIVYPTD	not soluble
MKIVEGVSLHLIKNQQFKTNHLTFRFSGDFNNKTVARRSLVAQMLVTANAKYPKVQEFREKLASLYGASLSTKISTKGLVHIVDIDIVFVKNTFTLEQENIVEQIITFLEDMLFSPLISLEQYQTSIFDTEKKN	not soluble
MSLKIKCILIEDEISNEKELYFILRRYDDIEIVGMVQNTDEGIDLVKKLRPQAVFLDINVPNFNGIKLAEEIKDVDSTIAVIFVTAYDKYAVAAFEIKALDYILKPFSIARIEKAVERLKEYINVNKSMKEKLFELICEFNNMERKYIINKIPCENKGKIVLVDVNDIYFFYIKSEKTYVKLNDIIYVTSSTLNDMEKKTGFFRAHRSYLVNLNKIFEIYSWFNGTYKLIMSDYRKSEIPVSRGNVRKLKEIINIEGHHHHHH	not soluble
MTMRNFDLSPLMRQWIGFDKLANALQNAGESQSFPPYNIEKSDDNHYRITLALAGFRQEDLEIQLEGTRLSVKGTPEQPKEEKKWLHQGLMNQPFSLSFTLAENMEVSGATFVNGLLHIDLIRNEPEPIAAQRIAISERPALNS	not soluble
MTQKEISIIHPRPSSIVAALYTLRDLNVDVAILHGPPGCSFKHARLLEEDGIHVVTTGLDENGFVFGGHDRLVEVINKSIELFNPKILGVVGTCASMIIGEEMHDAVLEANPDIPVIEVEVHAGYHNNTRGVLFALESALDAGIIDRKEFERQEYLEHHHHHH	soluble
MSLNITGIQSDWKVEKIEFAKLTGERARSAGANGRIGVHGKSCTVDIARITIDGQTGYGSSIHMTPEWAEDVIGRRLLDLFDDRGRLREAYRLQLEYPVLDWLGQRQGKPVYDLVSGAHLETGASLVVPCYDTSLYFDDLHLADERAAVALMQEEAMQGYAKGQRHFKIKVGRGGRHMPLWEGTKRDIAIVRGISEVAGPAGKIMIDANNAYNLNLTKEVLAALSDVNLYWLEEAFHEDEALYEDLKEWLGQRGQNVLIADGEGLASPHLIEWATRGRVDVLQYDIIWPGFTHWMELGEKLDAHGLRSAPHCYGNAYGIYASGHLSAAVRNFEFVEYDDITIEGMDVSGYRIENGEIHVPATPGFGIVFDDELVTYLINRSGWSEGHHHHHH	soluble
MQNAVKLDEIDHKIMNLLYENARISVSEIGRIISMTQPAVKERINKLEDQGVIAAYRTKFEPSKINKNIQAFIMFKTSQCSDFIQFCNAAPEVTDLYRISGEFNYMMKVMSDSMDSLAAFLDSLMQFGLSSPLIVLKSEFEEKLSF	soluble
MSLKSFFIGNIEIKVPVIQGGMGVGISLSGLASAVANEGGVGVISCAGLGLLYPKEKGTYTEKCISGLKEEIRKSRMKTKGIIGVNVMVALSNYADMVRTAINEKIDVIFSGAGLPLDLPSYLTTGSITKLVPIVSSSRAAKIICDKWQKNYNYLPDAIVVEGPKAGGHLGFKKEQLQDQNYALDVLIPEVVAIAASYKEQKHIPVIAAGGISTGEDIAHFMELGASGVQMGSIFVTTLECDASETFKEVYIHSKSEDVLIIESPVGMPGRAIDGEFIHSVNNGLEKPRKCSFHCIKTCDYTKSPYCIIKALYNAAKGNMKKGYAFAGSNAFLADKISSVKEVMNTLEREFFLATHKLVEGHHHHHH	not soluble
MSLINFGIIGAGNIANRFADSLSHFKDANLYAVACRGIEKAAAFQRKHPCQLIYDDYDELLSNKDIDIVYIAVPHGFHYLWISKALKKGKAVLCEKPATLNAEQMKSVQKLAEAKNIFFMEAMKSRFTPAYQEIKTIINNGEIGKIISIDSSFCREISKKTATYHFQPIQGGCLLDIGIYNVALTEDFAKTLPKVEVLENKMDISGVESYTKAKLLFPNLSATIECAFDRNKQTEATIKGEKGQIEIKNFHRAESFIVKTSSGTKNYHIAYEQDDFHGEIAHVIQCYGKNKTESNNMPISDSVNCALIIEKIKNQIPELAEGHHHHHH	soluble
